B1: human monoclonal antibody 5A2 (antibody, V domains shown)
VH: QVQLVQSGAEVRKPGSSVKVSCKASGGTFSSYVIHWVRQAPGQGLEWMGGIIPIFNTANYAQKVQGRVTITADESTSTAYMELSSLRSEDTAIYYCARDFLSGPMEMPGGYYGLDVWGQGTTVTVSS
VL: not shown
notes: Human IgG from an immortalised B cell clone
B2: human monoclonal antibody 1F11 (antibody, V domains shown)
VH: QVQLVESGGGVVQPGRSVRLSCVASGFTFSSYAMHWVRQAPGKGLEWVSLISFDGDNKYYADSVRGRFTISRDSSQKTLFLQMNSLRVEDTAIYYCAREELVGLMPPYYNYGLDVWGQGTTVTVSS
VL: QSVLTQPPSVSAAPGQKVTISCSGSSSNIGNNFVSWYQQLPGTAPKLLIYDNDRRPSGIPDRFSGSKSDTSATLVITGLQTGDEADYYCETWDGSLNPAVVFGGGTRLTVL
notes: Human IgG from an EBV-immortalised B cell clone
B3: human monoclonal antibody 2F4 (antibody, V domains shown)
VH: QVQLVESGGGVVQPGRSLRLSCAASGFSFNTYGMHWVRQAPGKGLEWVAVIWDDGSKMYHADSVKGRFTISRDNSKNTLYLQMNSLRAEDTAVYYCARDEGAIMLHAMTDYGLDVWGQGTTVTV
VL: SYELTQPPSVSVSPGQTATITCSGDNLGDEFACWYQQKPGQSPVLVIYQDSKRPSGIPERFSGSSSGNTATLTIRGTQAMDEADYYCQAWDSSTAHYVFGTGTKVTVL
notes: as for B1

The binders below were run against T1, HA-tagged UL128Δ1-27 hCMV protein expressed in HEK293T cells (human cytomegalovirus (hCMV), UniProt P16837 28-171) (assay: FACS staining of fixed, permeabilized transfected HEK293T cells).
T1 construct: mature; not shown: hemagglutinin (HA) tag
T1 sequence: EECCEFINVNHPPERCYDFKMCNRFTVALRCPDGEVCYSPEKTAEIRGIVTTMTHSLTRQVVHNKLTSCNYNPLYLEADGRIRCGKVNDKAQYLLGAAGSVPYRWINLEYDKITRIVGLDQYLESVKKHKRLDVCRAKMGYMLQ

Question: Does B1 bind?
Answer: no binding

Question: Does B2 bind?
Answer: no binding

Question: Does B3 bind?
Answer: no binding

These binders were tested against T2, HA-tagged UL130Δ1-25 hCMV protein expressed alone in HEK293T cells (human cytomegalovirus (hCMV), UniProt P16772 26-214) in the same assay as above.
T2 construct: mature; not shown: hemagglutinin (HA) tag

Question: Does B1 bind?
Answer: no binding

Question: Does B2 bind?
Answer: no binding

Question: Does B3 bind?
Answer: no binding

The binders below were run against UL130/UL131A of a clinical hCMV isolate (virus used in the neutralisation assay) (human cytomegalovirus (hCMV), UniProt P16772 26-214) (assay: cell-based or functional assay).

Question: Which results are given for B1?
Answer: 50% neutralisation (µg/ml), Endothelial cells: 0.002 µg/mL; 50% neutralisation (µg/ml), Fibroblasts: > 2 µg/mL

Question: B2 was tested. Which “50% neutralisation (µg/ml), Endothelial cells” value did it give?
Answer: 0.001 µg/mL

Question: And the “50% neutralisation (µg/ml), Fibroblasts” value?
Answer: > 2 µg/mL

Question: For B3, which “50% neutralisation (µg/ml), Endothelial cells” value is on record?
Answer: 0.003 µg/mL

Question: What about the “50% neutralisation (µg/ml), Fibroblasts” value of the same binder?
Answer: > 2 µg/mL
